Experimental findings from patent publication CN114146174A (HEADA BIOPHARMACEUTICAL SUZHOU CO LTD, dated 2022) are described below.

One assay deals with T1, 人OX40抗原(购自Sino) (human, UniProt P43489 29-216, limits assumed).
T1 construct: Bought antigen coated on the ELISA plate; also called human OX40; CD134
T1 sequence (looked up): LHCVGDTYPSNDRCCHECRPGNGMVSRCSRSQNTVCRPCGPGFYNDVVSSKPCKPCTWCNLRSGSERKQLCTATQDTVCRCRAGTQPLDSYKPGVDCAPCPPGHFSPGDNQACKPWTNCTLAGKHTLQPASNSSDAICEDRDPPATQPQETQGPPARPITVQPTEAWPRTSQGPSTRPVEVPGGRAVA
The experiment in a line: direct ELISA on coated human OX40 antigen; relative binding activity after 1 month at 40℃±2℃, pH 5.0-7.0 samples. A general note: In an ELISA, binding on a coated surface is turned into a signal by an enzyme label.

A further assay deals with T2, 人PD-L1抗原(购自Promega) (human, UniProt Q9NZQ7 19-238, limits assumed).
T2 construct: Bought antigen coated on the ELISA plate; also called human PD-L1; CD274
The experiment in a line: direct ELISA on coated human PD-L1 antigen; relative binding activity after 1 month at 40℃±2℃, pH 5.0-7.0 samples.

T2 sequence (Q9NZQ7 19-238 limits assumed): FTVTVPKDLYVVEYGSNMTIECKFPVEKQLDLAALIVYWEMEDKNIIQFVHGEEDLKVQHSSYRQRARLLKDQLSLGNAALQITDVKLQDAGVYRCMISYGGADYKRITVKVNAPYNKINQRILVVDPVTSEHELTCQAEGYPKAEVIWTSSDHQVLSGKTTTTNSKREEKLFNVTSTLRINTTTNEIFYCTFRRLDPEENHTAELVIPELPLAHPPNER

B1: 抗PD-L1/OX40双特异性抗体 (bispecific antibody, human IgG2, kappa)
heavy: QVQLVQSGAEVKKPGASVKVSCKASGYTFTSYYMHWVRQAPGQGLEWMGIINPSGGSTSYAQKFQGRVTMTRDTSTSTVYMELSSLRSEDTAVYYCARDHASSSWYTTHLDLWGRGTLVTVSSASTKGPSVFPLAPCSRSTSESTAALGCLVKDYFPEPVTVSWNSGALTSGVHTFPAVLQSSGLYSLSSVVTVPSSNFGTQTYTCNVDHKPSNTKVDKTVERKCCVECPPCPAPPVAGPSVFLFPPKPKDTLMISRTPEVTCVVVDVSHEDPEVQFNWYVDGVEVHNAKTKPREEQFNSTFRVVSVLTVVHQDWLNGKEYKCKVSNKGLPAPIEKTISKTKGQPREPQVYTLPPSREEMTKNQVSLTCLVKGFYPSDIAVEWESNGQPENNYKTTPPMLDSDGSFFLYSKLTVDKSRWQQGNVFSCSVMHEALHNHYTQKSLSLSPGGGGGSGGGGSQVQLQESGGGLVQPGGSLRLSCAASAYTISRNSMGWFRQAPGKGLEGVAAIESDGSTSYSDSVKGRFTISLDNSKNTLYLEMNSLRAEDTAVYYCAAPKVGLGPRTALGHLAFMTLPALNYWGQGTLVTVSS
light: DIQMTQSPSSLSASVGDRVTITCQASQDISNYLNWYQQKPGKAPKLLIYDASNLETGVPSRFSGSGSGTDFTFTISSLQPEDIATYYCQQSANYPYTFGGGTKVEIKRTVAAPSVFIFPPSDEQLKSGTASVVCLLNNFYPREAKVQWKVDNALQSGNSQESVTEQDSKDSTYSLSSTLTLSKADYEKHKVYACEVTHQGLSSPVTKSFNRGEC
notes: also called 重组抗肿瘤坏死因子受体超家族成员4(OX40)和抗程序性死亡配体1(PD-L1)双特异性抗体; anti-PD-L1/OX40 bispecific antibody
Regarding B1, the binding result in the assay with 人OX40抗原(购自Sino) and with 人PD-L1抗原(购自Promega) was “binds” throughout.
